Results reported in PMC8004701, “An Arabidopsis Oxalyl-CoA Decarboxylase, AtOXC, Is Important for Oxalate Catabolism in Plants” (International Journal of Molecular Sciences, 2021).

Target: the molecule itself
Experiment: SEC; Superdex 200 Increase 10/300 GL, 100 mM sodium phosphate pH 7.5, 100 mM NaCl, 10 mM beta-mercaptoethanol; standards aldolase (158 kDa) and conalbumin (75 kDa); AtOXC eluted at 13.0 mL

B1: Arabidopsis oxalyl-CoA decarboxylase (AtOXC), His-tagged (enzyme, Arabidopsis thaliana, UniProt Q9LF46 1-572, looked up)
chain: MADKSETTPPSIDGNVLVAKSLSHLGVTHMFGVVGIPVTSLASRAMALGIRFIAFHNEQSAGYAASAYGYLTGKPGILLTVSGPGCVHGLAGLSNAWVNTWPMVMISGSCDQRDVGRGDFQELDQIEAVKAFSKLSEKAKDVREIPDCVSRVLDRAVSGRPGGCYLDIPTDVLRQKISESEADKLVDEVERSRKEEPIRGSLRSEIESAVSLLRKAERPLIVFGKGAAYSRAEDELKKLVEITGIPFLPTPMGKGLLPDTHEFSATAARSLAIGKCDVALVVGARLNWLLHFGESPKWDKDVKFILVDVSEEEIELRKPHLGIVGDAKTVIGLLNREIKDDPFCLGKSNSWVESISKKAKENGEKMEIQLAKDVVPFNFLTPMRIIRDAILAVEGPSPVVVSEGANTMDVGRSVLVQKEPRTRLDAGTWGTMGVGLGYCIAAAVASPDRLVVAVEGDSGFGFSAMEVETLVRYNLAVVIIVFNNGGVYGGDRRGPEEISGPHKEDPAPTSFVPNAGYHKLIEAFGGKGYIVETPDELKSALAESFAARKPAVVNVIIDPFAGAESGRLQHKN
notes: Oxalyl-CoA decarboxylase AtOXC, Arabidopsis thaliana, locus At5g17380; full-length cDNA; monomer about 61.5 kDa; No removal of the tag is reported; also called His-AtOXC; His-tagged AtOXC; source: E. coli BLR (DE3), purified (nickel-nitriloacetic acid agarose, desalted on Sephadex G-25)
For B1, the “stoichiometry N” value was 2.
